Measurements reported in paper doi:10.1101/2024.04.26.591398.

Target: T1, FITC-casein
T1 sequence (P02666 16-224, species assumed, looked up): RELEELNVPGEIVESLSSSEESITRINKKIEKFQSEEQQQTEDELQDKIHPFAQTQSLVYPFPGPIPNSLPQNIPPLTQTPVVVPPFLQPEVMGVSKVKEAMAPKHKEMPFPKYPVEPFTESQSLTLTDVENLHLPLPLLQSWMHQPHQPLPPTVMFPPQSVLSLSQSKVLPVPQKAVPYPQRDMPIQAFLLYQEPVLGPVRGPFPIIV
Test: fluorescence polarisation

Sequence of Ydj1 (P25491 whole entry): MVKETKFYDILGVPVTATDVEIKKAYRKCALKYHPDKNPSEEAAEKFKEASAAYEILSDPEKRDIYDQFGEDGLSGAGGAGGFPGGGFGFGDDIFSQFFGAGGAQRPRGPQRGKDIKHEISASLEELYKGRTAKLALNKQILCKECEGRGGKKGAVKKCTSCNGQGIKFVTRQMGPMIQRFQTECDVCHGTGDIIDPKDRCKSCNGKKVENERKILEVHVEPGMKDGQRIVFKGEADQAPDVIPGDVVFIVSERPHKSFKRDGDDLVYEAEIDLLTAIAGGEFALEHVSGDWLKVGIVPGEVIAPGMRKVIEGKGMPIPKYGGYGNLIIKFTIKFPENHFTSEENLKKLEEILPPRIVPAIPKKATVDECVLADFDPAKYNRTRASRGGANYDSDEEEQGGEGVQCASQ
Sequence of Hsp104 (P31539 whole entry): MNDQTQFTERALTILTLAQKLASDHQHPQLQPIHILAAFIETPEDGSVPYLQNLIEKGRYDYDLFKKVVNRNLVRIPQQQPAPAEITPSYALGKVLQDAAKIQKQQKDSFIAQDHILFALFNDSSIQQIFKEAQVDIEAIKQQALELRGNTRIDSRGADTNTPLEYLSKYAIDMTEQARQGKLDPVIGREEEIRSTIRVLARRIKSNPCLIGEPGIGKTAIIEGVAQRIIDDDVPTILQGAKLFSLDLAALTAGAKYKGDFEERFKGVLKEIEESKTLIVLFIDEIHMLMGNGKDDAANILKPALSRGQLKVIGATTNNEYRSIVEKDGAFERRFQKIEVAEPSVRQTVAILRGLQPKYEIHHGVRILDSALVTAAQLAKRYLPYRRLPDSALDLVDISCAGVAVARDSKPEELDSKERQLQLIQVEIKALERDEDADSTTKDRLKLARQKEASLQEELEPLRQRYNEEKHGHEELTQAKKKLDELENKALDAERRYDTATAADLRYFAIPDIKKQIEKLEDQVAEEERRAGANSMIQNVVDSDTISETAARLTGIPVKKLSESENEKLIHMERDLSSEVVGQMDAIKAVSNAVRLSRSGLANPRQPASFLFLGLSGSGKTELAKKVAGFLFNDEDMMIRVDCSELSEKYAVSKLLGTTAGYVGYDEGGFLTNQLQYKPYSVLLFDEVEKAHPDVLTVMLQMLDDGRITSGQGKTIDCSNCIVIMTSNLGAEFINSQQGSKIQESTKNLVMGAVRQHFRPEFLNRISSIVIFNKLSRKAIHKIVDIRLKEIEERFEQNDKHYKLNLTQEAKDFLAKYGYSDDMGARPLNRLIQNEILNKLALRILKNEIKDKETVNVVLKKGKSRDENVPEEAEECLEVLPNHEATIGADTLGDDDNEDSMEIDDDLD

| Kd [µM] | IC50 [µM] | Substance |
| --- | --- | --- |
| 0.2 | – | Hsp104 (from UniProt P31539 1-908) (natural protein) |
| – | 20 to 40 | Ydj1 (from UniProt P25491 1-409) (natural protein) |
